Biological target: full-length native GPC (strain Josiah) expressed on HEK293T cells (Lassa virus, strain Josiah, UniProt P08669)
Assay: flow cytometry on cells
Conditions: one partner purified

B1: 25.10C IgG (antibody, V domains shown)
VH: QVQLQESGGGLVKPGGSLRLSCTASGFNFNKYNMNWVRQAPGKGLEWVSSISALSTYIYYADSLKGRFTVSRDNAKNSLFLQMNSLRDDDTAVYYCAREIRRASTWSADLWGRGTLVTVSS
VL: DIQMTQSPSSLSASVGDRVIITCRASQSISSSLNWYQQKPGKAPKLLIYAAVNLETGVPSRFSGSGFGTDFTLAISNVQPEDFATYYCQQSDTRTFGRGTKLDVK
notes: IgG1
B1: binds.
